From patent US10184116B2, “Chimeric genes for the catalytic protein of Oplophorus luciferase and use thereof” (JNC CORPORATION, priority 2014, dated 2019)

What was measured:
CHO-K1 cells [1] = assay: Luminescence activity of KAZ mutants expressed in animal cultured cells, culture medium and cell extract (Example 6); type: cell-based, Chinese hamster; settings: pcDNA3-GLsp- vector in CHO-K1, coelenterazine substrate
Protocol: (§1) Chinese hamster ovary cell line CHO-K1 was cultured in Ham's F-12 medium (manufactured by Wako Pure Chemical Industries, Ltd.) supplemented with 10% (v/v) fetal bovine serum (manufactured by Biowest Inc.). The CHO-K1 cells were seeded in a 6-well plate in 1×10^5 cells/well/2 mL medium (n=2) and cultured in an incubator at 37° C. in 5% (v/v) CO2. After 24 hours, the purified recombinant plasmid was transfected to CHO-K1 cells using a FuGene HD transfection kit (manufactured by Promega Corp.) and the cells were used for subsequent experiment. Specifically, 1 μg of the recombinant plasmid, 0.1 μg of the internal standard vector pGL4.13 [Luc2/sv40] and 3 μL of FuGene HD were added to 100 μL of the medium and allowed to stand at room temperature for 15 minutes. Subsequently, 100 μL of the DNA-FuGene complex solution was added to the cells in the 6-well plate. After incubation for 46 hours, the culture medium was collected. On the other hand, the KAZ mutant expressed in the cells was washed 3 times with 3 mL of 1×PBS, then suspended in 1 mL of 1×PBS and disrupted by sonication on ice. The resultant cell extract of WNanoKAZ was used as the enzyme solution.
(§2) After adding 5 μL of the culture medium and cell extract obtained in EXAMPLE 5 to 100 μL of 30 mM Tris-HCl (pH 7.6)-10 mM EDTA (Wako Pure Chemical Industries, Ltd.) containing 1 μg of coelenterazine (manufactured by JNC Corp.), a luminescence reaction was started. Luminescence activity was measured for 60 seconds using a luminometer (manufactured by Atto Inc.: AB2200). The maximum intensity of luminescence (Imax) was given as a percentage (%).

[2] = Luminescence activity of ZZ-fused WNanoKAZ mutants in crude enzyme solution (Example 10); type: biochemical; settings: coelenterazine substrate; for Relative luminescence activity (Imax): ZZ-fused, pCold-ZZ-P- vector in E. coli, KAZ = 1.0; for fold higher activity than native KAZ / fold higher activity than the relative activity 7.4 of dnKAZ: Imax
Protocol: In order to express ZZ-fused KAZ mutants in E. coli, the recombinant plasmid produced in EXAMPLE 8 and pCold-ZZ-P-WNanoKAZ produced in EXAMPLE 1 were used. The crude enzyme solution was prepared in a manner similar to EXAMPLE 2, using the E. coli BL21 strain (Novagen, Madison, Wis.) as a host cell. Then, 5 μL of the crude enzyme solution obtained was subjected to SDS-PAGE analysis to confirm the protein expression in all mutants. In FIG. 1, M and 1 to 8 represent as follows. M: molecular weight size markers; 1: ZZ-P-KAZ; 2: ZZ-P-WNanoKAZ; 3: ZZ-P-WNanoKAZ-V90I; 4: ZZ-P-WNanoKAZ-E115P; 5: ZZ-P-WNanoKAZ-K124Q; 6: ZZ-P-WNanoKAZ-I138Y; 7: ZZ-P-WNanoKAZ-R166N; 8: ZZ-P-dnKAZ. It was confirmed from FIG. 1 that all mutants were expressed.
(§3) DTT was added to the crude enzyme solution obtained in EXAMPLE 9 at a final concentration of 1 mM, and then allowed to stand in an ice-water bath over 8 hours or more. After 1 μL of the crude enzyme solution was added to 100 μL of 30 mM Tris-HCl (pH 7.6)-10 mM EDTA (Wako Pure Chemical Industries, Ltd.) containing 1 μg of coelenterazine (manufactured by JNC Corp.), a luminescence reaction was started. Luminescence activity was measured for 60 seconds using a luminometer (manufactured by Atto Inc.: AB2200). The maximum intensity of luminescence (Imax) was given as a relative luminescence activity (rlu).

[3] = Substrate specificity of WNanoKAZ mutants, crude enzyme solution (Example 11); type: biochemical; settings: for Relative luminescence activity, 6h-CTZ, Imax / Relative luminescence activity, 6h-CTZ, Int.: substrate 6h-CTZ; for Relative luminescence activity, 6h-f-CTZ, Imax / Relative luminescence activity, 6h-f-CTZ, Int.: substrate 6h-f-CTZ; for Relative luminescence activity, CTZ, Imax / Relative luminescence activity, CTZ, Int.: substrate CTZ
Protocol: as §3
Each of the coelenterazine analogues used for substrate specificity studies was synthesized by the methods described in publications. Specifically, bis-coelenterazine was synthesized by the method described in Nakamura et al. (1997) Tetrahedron Lett. 38: 6405-6406, furimazine by the method described in Hall et al. (2012) ACS Chem. Biol. […], and, 6h-coelenterazine, f-coelenterazine and 6h-f-coelenterazine by the method described in Inouye et al (2013) Biochem. Biophys. Res. Commun. 437: 23-28. Luminescence activity was measured by the same method as in EXAMPLE 10, using the crude enzyme solution obtained in EXAMPLE 10, in which coelenterazine or its analogue was used as the luminescence substrate.

CHO-K1 cells [4] = assay: Luminescence activity of WNanoKAZ mutants expressed by secretory expression vectors in animal culture cells (Example 13); type: cell-based, Chinese hamster; settings: pcDNA3-GLsp- secretory vector, coelenterazine substrate
Protocol: as §1, §2
The recombinant plasmid obtained in EXAMPLE 12 or 4 was purified in a manner similar to EXAMPLE 5 and dissolved in sterile water. The firefly luciferase vector (pGL4.13 [Luc2/sv40]: manufactured by Promega Corp.) was similarly prepared and used as an internal standard.
Culture medium containing two amino acid-substituted KAZ mutants and three amino acid-substituted KAZ mutants and cell extracts of the KAZ mutants as the enzyme solutions were prepared by the same procedure as in EXAMPLE 9.
The resultant culture medium and cell extracts were used to measure luminescence activity as in EXAMPLE 6.

[5] = Luminescence activity of WNanoKAZ in crude enzyme solution (Example 3); type: biochemical; settings: for Relative luminescence activity (Imax): pCold-ZZ-P- vector in E. coli, KAZ = 1.0
Protocol: In order to express WNanoKAZ in E. coli, pCold-ZZ-P-WNanoKAZ obtained in EXAMPLE 1 was used. The E. coli BL21 strain (Novagen, Madison, Wis.) was used as a host cell. The BL21 strain carrying the recombinant plasmid was incubated in 5 mL of Luria-Bertani medium (hereinafter designated as LB medium) containing ampicillin (50 μg/mL) at 37° C. for 17 hours. The seed culture of 0.1 mL was inoculated to 10 mL of LB medium and incubated for 3 hours, followed by cooling in freezing water for 1 hour. IPTG was added to the culture medium at a final concentration of 0.1 mM, followed by incubation at 15° C. for further 19 hours. After completion of the incubation, 1 mL of the culture medium was collected by centrifugation at 10,000 rpm for 2 minutes. The collected E. coli cells were suspended in 0.5 mL of 30 mM Tris-HCl (pH 7.6)-10 mM EDTA. The cells were disrupted by sonication for 3 seconds using a Branson Model 250 Sonifire (Danbury, Conn.) to give a crude enzyme solution. Then, DTT was added to the crude enzyme solution at a final concentration of 1 mM. After the mixture was allowed to stand in freezing water over 8 hours or more, the luminescence activity was measured.
1 μl of the crude enzyme solution obtained in EXAMPLE 2 was added to 100 μl of 30 mM Trix-HCl (pH 7.6)-10 mM EDTA (Wako Pure Chemical Industries, Ltd.) containing 1 μg of coelenterazine (manufactured by JINC Corp.), luminescence reaction was started. Luminescence activity was measured for 60 seconds using a luminometer (manufactured by Atto Inc.: AB2200); the maximum intensity of luminescence (Imax) was given as a relative luminescence activity.

[6] = crude enzyme solution, coelenterazine substrate

Relative luminescence activity (Imax) [2] | fold higher activity than native KAZ [2] | Relative luminescence activity, Furimazine, Imax [3] | Relative luminescence activity, bis-CTZ, Imax [3] | Relative luminescence activity, f-CTZ, Imax [3] | Relative luminescence activity, h-CTZ, Imax [3] | Relative luminescence activity, Furimazine, Int. [3] | Relative luminescence activity, bis-CTZ, Int. [3] | Relative luminescence activity, f-CTZ, Int. [3] | Relative luminescence activity, h-CTZ, Int. [3] | Relative luminescence activity, 6h-CTZ, Imax [3] | Relative luminescence activity, 6h-CTZ, Int. [3] | Relative luminescence activity, 6h-f-CTZ, Imax [3] | Relative luminescence activity, 6h-f-CTZ, Int. [3] | Relative luminescence activity, CTZ, Imax [3] | Relative luminescence activity, CTZ, Int. [3] | Molecule | Relative luminescence activity (%, Imax) Cell extracts (CHO-K1 cells [1]) | Relative luminescence activity (%, Imax) Culture medium (CHO-K1 cells [1]) | Relative luminescence activity (%, Imax) Cell extracts (CHO-K1 cells [4]) | Relative luminescence activity (%, Imax) Culture medium (CHO-K1 cells [4]) | also measured
64 | 64 fold | 26 | 32 | 48 | 64 | 29 | 24 | 32 | 33 | 8.9 | 7.5 | 41 | 34 | 64 | 56 | WNanoKAZ: chimeric protein: positions 1-82 of native KAZ and 83-169 of nanoKAZ; SEQ ID NO: 6; I90V, P115E, Q124K, Y138I, N166R (protein, chimeric protein: positions 1-82 of native KAZ and 83-169 of nanoKAZ; I90V, P115E, Q124K, Y138I, N166R) FTLADFVGDWQQTAGYNQDQVLEQGGLSSLFQALGVSVTPIQKVVLSGENGLKADIHVIIPYEGLSGFQMGLIEMIFKVVYPVDDHHFKVILHYGTLVIDGVTPNMIDYFGRPYEGIAVFDGKKITVTGTLWNGNKIIDERLINPDGSLLFRVTINGVTGWRLCERILA | 22% | <0.01% | 22% | <0.01% | fold higher activity than the relative activity 7.4 of dnKAZ [2]: 8.6 fold; fold higher activity than the other coelenterazine analogues when coelenterazine was used as the substrate [3]: 8.6 fold; fold higher activity than that of dnKAZ ([5]; coelenterazine used as the substrate, as shown in EXAMPLE 3): 64 fold; Relative luminescence activity (Imax) [5, 6]: 64; fold higher activity than native KAZ ([5]; crude enzyme solution, coelenterazine substrate, Imax): 64 fold
32 | 32 fold | 17 | 17 | 38 | 43 | 12 | 18 | 27 | 28 | 4.6 | 6.1 | 13 | 8.8 | 32 | 36 | WNanoKAZ-R166N: single amino acid-substituted WNanoKAZ mutant R166N; SEQ ID NO: 16 (protein) FTLADFVGDWQQTAGYNQDQVLEQGGLSSLFQALGVSVTPIQKVVLSGENGLKADIHVIIPYEGLSGFQMGLIEMIFKVVYPVDDHHFKVILHYGTLVIDGVTPNMIDYFGRPYEGIAVFDGKKITVTGTLWNGNKIIDERLINPDGSLLFRVTINGVTGWRLCENILA | – | – | 26% | <0.01% | fold higher activity than the relative activity 7.4 of dnKAZ [2]: 4.3 fold; fold higher activity than the other coelenterazine analogues when coelenterazine was used as the substrate [3]: 4.3 fold
1.0 | – | 0.2 | 0.5 | 1.0 | 1.2 | 0.3 | 0.1 | 0.9 | 0.9 | 0.08 | 0.1 | 0.3 | 0.4 | 1.0 | 1.0 | KAZ: 19 kDa protein of native Oplophorus luciferase having luminescence activity; SEQ ID NO: 2 (protein, listed as Oplophorus gracilirostris) FTLADFVGDWQQTAGYNQDQVLEQGGLSSLFQALGVSVTPIQKVVLSGENGLKADIHVIIPYEGLSGFQMGLIEMIFKVVYPVDDHHFKIILHYGTLVIDGVTPNMIDYFGRPYPGIAVFDGKQITVTGTLWNGNKIYDERLINPDGSLLFRVTINGVTGWRLCENILA | 0.2% | 0.1% | 0.2% | 0.1% | Relative luminescence activity (Imax) [5, 6]: 1.0
